# Target: human FGFR1c together with human beta-Klotho (KLB), stably expressed on CHO Flp-In cells (human) (UniProt P11362)
# Test: cell-based or functional assay
# human FGFR1c together with human beta-Klotho (KLB), stably expressed on CHO Flp-In cells (human), sequence (P11362 22-822, chain 1 of 2): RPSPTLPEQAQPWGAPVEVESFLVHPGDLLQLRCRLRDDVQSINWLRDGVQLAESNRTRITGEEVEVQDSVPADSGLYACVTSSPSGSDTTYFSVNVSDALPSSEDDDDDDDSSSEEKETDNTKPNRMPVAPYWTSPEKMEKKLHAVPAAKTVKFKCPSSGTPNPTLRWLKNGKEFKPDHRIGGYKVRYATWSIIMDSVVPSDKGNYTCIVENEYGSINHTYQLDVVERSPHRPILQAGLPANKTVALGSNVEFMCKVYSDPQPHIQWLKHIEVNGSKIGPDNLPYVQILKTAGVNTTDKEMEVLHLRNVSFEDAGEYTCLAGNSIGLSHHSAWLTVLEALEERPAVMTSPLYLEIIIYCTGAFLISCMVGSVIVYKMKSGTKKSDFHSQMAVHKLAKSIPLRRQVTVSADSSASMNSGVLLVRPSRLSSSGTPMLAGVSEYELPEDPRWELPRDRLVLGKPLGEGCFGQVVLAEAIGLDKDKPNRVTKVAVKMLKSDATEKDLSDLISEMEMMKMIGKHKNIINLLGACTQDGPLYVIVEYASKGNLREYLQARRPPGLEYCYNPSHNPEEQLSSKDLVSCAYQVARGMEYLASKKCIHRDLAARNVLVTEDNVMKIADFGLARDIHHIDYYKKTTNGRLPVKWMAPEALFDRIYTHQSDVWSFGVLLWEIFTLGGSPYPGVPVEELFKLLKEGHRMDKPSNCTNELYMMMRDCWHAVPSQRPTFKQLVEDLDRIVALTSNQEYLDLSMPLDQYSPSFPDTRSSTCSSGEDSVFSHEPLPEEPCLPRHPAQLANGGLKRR
# human FGFR1c together with human beta-Klotho (KLB), stably expressed on CHO Flp-In cells (human), sequence (Q86Z14 whole entry, chain 2 of 2, further chain): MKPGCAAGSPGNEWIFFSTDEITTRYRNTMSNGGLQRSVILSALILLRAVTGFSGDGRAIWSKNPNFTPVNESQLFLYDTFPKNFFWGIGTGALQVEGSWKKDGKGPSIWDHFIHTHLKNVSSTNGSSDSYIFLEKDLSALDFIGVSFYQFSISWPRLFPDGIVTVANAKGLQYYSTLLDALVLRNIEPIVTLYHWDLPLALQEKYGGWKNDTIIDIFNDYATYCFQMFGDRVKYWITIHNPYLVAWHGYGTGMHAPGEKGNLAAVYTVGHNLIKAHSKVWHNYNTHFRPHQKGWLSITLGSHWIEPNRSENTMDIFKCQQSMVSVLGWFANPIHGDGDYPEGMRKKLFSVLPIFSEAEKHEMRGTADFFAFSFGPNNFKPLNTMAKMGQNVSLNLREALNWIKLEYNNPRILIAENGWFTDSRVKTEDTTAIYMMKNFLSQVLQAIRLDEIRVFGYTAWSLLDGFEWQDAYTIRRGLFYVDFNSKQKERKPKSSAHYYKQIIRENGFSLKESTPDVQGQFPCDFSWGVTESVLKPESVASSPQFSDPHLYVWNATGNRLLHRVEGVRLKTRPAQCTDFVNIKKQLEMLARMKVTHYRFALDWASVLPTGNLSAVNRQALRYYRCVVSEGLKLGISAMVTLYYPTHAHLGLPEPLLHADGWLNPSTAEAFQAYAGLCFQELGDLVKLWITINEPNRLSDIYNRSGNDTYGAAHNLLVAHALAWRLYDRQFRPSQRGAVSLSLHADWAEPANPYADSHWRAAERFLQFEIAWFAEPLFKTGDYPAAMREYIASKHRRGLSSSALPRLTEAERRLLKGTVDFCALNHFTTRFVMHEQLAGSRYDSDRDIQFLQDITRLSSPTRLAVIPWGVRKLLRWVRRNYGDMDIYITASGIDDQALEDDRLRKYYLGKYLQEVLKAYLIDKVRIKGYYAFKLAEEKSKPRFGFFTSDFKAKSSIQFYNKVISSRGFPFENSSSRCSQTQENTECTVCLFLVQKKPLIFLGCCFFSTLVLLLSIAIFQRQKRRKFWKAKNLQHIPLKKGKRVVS
# FGF21 G189 deleted (SEQ ID NO: 55), sequence (Q9NSA1 other isoform, or with tags, fused parts or gaps): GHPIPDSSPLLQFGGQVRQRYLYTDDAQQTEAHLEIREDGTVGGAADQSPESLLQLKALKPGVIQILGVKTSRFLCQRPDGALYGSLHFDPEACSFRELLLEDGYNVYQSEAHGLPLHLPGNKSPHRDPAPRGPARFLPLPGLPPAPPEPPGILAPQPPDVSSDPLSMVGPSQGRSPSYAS
# FGF21 G198-P199 deleted (SEQ ID NO: 30), sequence (Q9NSA1 other isoform, or with tags, fused parts or gaps): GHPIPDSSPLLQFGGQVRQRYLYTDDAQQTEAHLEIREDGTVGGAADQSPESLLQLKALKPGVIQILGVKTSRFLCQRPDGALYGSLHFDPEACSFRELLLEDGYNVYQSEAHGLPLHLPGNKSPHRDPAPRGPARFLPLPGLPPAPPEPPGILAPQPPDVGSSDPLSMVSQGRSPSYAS
# FGF21 D187 deleted (SEQ ID NO: 57), sequence (Q9NSA1 other isoform, or with tags, fused parts or gaps): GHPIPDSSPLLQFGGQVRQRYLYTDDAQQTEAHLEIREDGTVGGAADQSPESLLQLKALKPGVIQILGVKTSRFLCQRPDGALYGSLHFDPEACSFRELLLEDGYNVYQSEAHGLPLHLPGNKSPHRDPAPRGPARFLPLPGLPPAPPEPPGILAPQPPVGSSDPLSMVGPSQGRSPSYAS
# FGF21 G198 deleted (SEQ ID NO: 29), sequence (Q9NSA1 other isoform, or with tags, fused parts or gaps): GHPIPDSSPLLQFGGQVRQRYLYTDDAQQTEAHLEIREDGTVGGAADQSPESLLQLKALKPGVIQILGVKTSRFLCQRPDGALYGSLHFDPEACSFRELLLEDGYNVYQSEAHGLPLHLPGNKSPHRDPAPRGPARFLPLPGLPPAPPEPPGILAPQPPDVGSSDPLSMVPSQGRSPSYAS
# FGF21 G198 deleted, S200 deleted (SEQ ID NO: 74), sequence (Q9NSA1 other isoform, or with tags, fused parts or gaps): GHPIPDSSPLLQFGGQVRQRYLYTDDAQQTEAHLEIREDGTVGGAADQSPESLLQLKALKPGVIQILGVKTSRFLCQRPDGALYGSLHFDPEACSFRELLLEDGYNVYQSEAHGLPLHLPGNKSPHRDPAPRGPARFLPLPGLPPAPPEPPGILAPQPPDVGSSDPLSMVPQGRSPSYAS
row,pERK ICW EC50,Substance
1,6.38 nmol/L,"FGF21 A54C, P161C (SEQ ID NO: 109) (from UniProt Q9NSA1 29-209) (ligand)"
2,2.15 nmol/L,"FGF21 A59C, G71C (SEQ ID NO: 77) (from UniProt Q9NSA1 29-209) (ligand)"
3,0.75 nmol/L,"FGF21 A59C, G71C, G198Y (SEQ ID NO: 37) (from UniProt Q9NSA1 29-209) (ligand)"
4,1.16 nmol/L,"FGF21 A59C, G71C, P199 deleted (SEQ ID NO: 36) (from UniProt Q9NSA1 29-209) (ligand)"
5,11.8 nmol/L,"FGF21 A72C, S79C (SEQ ID NO: 87) (from UniProt Q9NSA1 29-209) (ligand)"
6,86.1 nmol/L,FGF21 D187 deleted (SEQ ID NO: 57) (from UniProt Q9NSA1 29-209) (ligand)
7,2.03 nmol/L,"FGF21 E62C, A72C (SEQ ID NO: 106) (from UniProt Q9NSA1 29-209) (ligand)"
8,2.44 nmol/L,"FGF21 E62C, E78C (SEQ ID NO: 101) (from UniProt Q9NSA1 29-209) (ligand)"
9,9.22 nmol/L,"FGF21 E78C, T98C (SEQ ID NO: 118) (from UniProt Q9NSA1 29-209) (ligand)"
10,23.3 nmol/L,"FGF21 G67C, R100C (SEQ ID NO: 112) (from UniProt Q9NSA1 29-209) (ligand)"
11,0.55 nmol/L,"FGF21 G108C, L142C, G198Y (SEQ ID NO: 41) (from UniProt Q9NSA1 29-209) (ligand)"
12,41.6 nmol/L,FGF21 G198 deleted (SEQ ID NO: 29) (from UniProt Q9NSA1 29-209) (ligand)
13,9.44 nmol/L,"FGF21 G198 deleted, P199L, S200N (SEQ ID NO: 33) (from UniProt Q9NSA1 29-209) (ligand)"
14,4.94 nmol/L,FGF21 G198D (SEQ ID NO: 17) (from UniProt Q9NSA1 29-209) (ligand)
15,4.53 nmol/L,FGF21 G198E (SEQ ID NO: 16) (from UniProt Q9NSA1 29-209) (ligand)
16,10.8 nmol/L,"FGF21 G198P, P199G (SEQ ID NO: 24) (from UniProt Q9NSA1 29-209) (ligand)"

# Further lines, the substance ahead of its results:
row,Substance,pERK ICW EC50
1,"FGF21 A59C, A73C (SEQ ID NO: 105) (from UniProt Q9NSA1 29-209) (ligand)",19.2 nmol/L
2,"FGF21 A72C, S79C, G108C, L142C (SEQ ID NO: 89) (from UniProt Q9NSA1 29-209) (ligand)",8.24 nmol/L
3,"FGF21 A120C, A139C (SEQ ID NO: 114) (from UniProt Q9NSA1 29-209) (ligand)",22 nmol/L
4,"FGF21 D130C, Y132C (SEQ ID NO: 83) (from UniProt Q9NSA1 29-209) (ligand)",49.4 nmol/L
5,"FGF21 E62C, S79C (SEQ ID NO: 102) (from UniProt Q9NSA1 29-209) (ligand)",0.55 nmol/L
6,"FGF21 G108C, L142C (SEQ ID NO: 86) (from UniProt Q9NSA1 29-209) (ligand)",1.48 nmol/L
7,"FGF21 G108C, L142C, P199 deleted (SEQ ID NO: 40) (from UniProt Q9NSA1 29-209) (ligand)",0.9 nmol/L
8,FGF21 G189 deleted (SEQ ID NO: 55) (from UniProt Q9NSA1 29-209) (ligand),76.2 nmol/L
9,"FGF21 G198 deleted, P199F (SEQ ID NO: 31) (from UniProt Q9NSA1 29-209) (ligand)",2.1 nmol/L
10,"FGF21 G198 deleted, P199L (SEQ ID NO: 32) (from UniProt Q9NSA1 29-209) (ligand)",4.8 nmol/L
11,"FGF21 G198 deleted, S200 deleted (SEQ ID NO: 74) (from UniProt Q9NSA1 29-209) (ligand)",77.8 nmol/L
12,FGF21 G198-P199 deleted (SEQ ID NO: 30) (from UniProt Q9NSA1 29-209) (ligand),14.5 nmol/L
13,FGF21 G198K (SEQ ID NO: 19) (from UniProt Q9NSA1 29-209) (ligand),1.81 nmol/L

# Source: patent publication US20250171512A1
